Here are results for 11 proteins from patent US20100151556A1 (CELLECTIS, published 2010).

Data set [1] deals with the molecule itself. Kind of data set: size-exclusion chromatography of the purified protein; no self-association. On the procedure:
The molecular weight of Sc I-CreI in solution was estimated by size-exclusion chromatography of the purified protein. The column fractions were analyzed by SDS-PAGE, and the 31.4 kDa band eluted primarily, which corresponded to a molecular mass of 30 kDa.
(In general: SEC sorts molecules by how far they enter the pores of the column.)

Data set [2] concerns the molecule itself. Kind of data set: analytical gel filtration (Superdex 200) of the purified single chain; no self-association. On the procedure:
Circular dichroism (CD) measurements were performed on a Jasco J-810 spectropolarimeter using a 0.2 cm path length quartz cuvette adm […] protein solutions in phosphate saline buffers. Equilibrium unfolding was induced increasing temperature at a rate of 1° C./min (using a programmable Peltier thermoelectric). Analytical gel filtration chromatography was performed at room temperature with an AKTA FPLC system (GE) using a Superdex 200 10/300GL column in 20 mM sodium phosphate buffer pH 6.0 1 M NaCl. A sample of 100 μL of SC-v3v2G19S constructs at a concentration of 0.3 mg/ml was injected and eluted at a flow rate of 0.2 ml/min. The column was calibrated with blue dextran (excluded volume) and molecular weight markers from 17 to 670 kDa (BioRad).

For data set [3], the target named is T1, H33 I-CreI mutant (C3 / HprCH3.3 cutter).
T1 chain: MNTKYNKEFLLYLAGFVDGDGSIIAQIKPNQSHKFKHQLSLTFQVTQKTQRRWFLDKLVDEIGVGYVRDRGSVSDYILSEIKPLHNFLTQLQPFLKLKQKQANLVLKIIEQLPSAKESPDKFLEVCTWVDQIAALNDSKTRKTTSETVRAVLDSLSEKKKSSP

B1: Single chain I-CreI meganuclease (enzyme)
chain: MANTKYNKEFLLYLAGFVDGDGSIIAQIKPNQSYKFKHQLSLTFQVTQKTQRRWFLDKLVDEIGVGYVRDRGSVSDYILSEIKPLHNFLTQLQAMLERIRLFNMREFLLYLAGFVDGDGSIIAQIKPNQSYKFKHQLSLTFQVTQKTQRRWFLDKLVDEIGVGYVRDRGSVSDYILSEIKPLHNFLTQLQPFLKLKQKQANLVLKIIEQLPSAKESPDKFLEVCTWVDQIAALNDSKTRKTTSETVRAVLDSLSEKKKSSPAAD
notes: Produced 'with or without an histidine tag'; It was purified on a cobalt column; also called Sc I-CreI; scI-CreI
Take B1: in data set [1], the binding result is listed as “no binding”.

B2: M2-RM2-M3 RAG1 single chain meganuclease (protein)
chain: MNTKYNKEFLLYLAGFVDGDGSIIAQIKPRQSNKFKHQLSLTFAVTQKTQRRWFLDKLVDEIGVGYVYDSGSVSDYRLSEIKPLHNFLTQLQPFLKLKQKQANLVLKIIEQLPSAKESPDKFLEVCTWVDQIAALNDSKTRKTTSETVRAVLDSLSEKKKSSPAAGGSDKYNQALSKYNQALSKYNQALSGGGGSNKEFLLYLAGFVDGDGSIIAQINPNQSSKFKHRLRLTFYVTQKTQRRWFLDKLVDEIGVGYVRDSGSVSQYVLSEIKPLHNFLTQLQPFLKLKQKQANLVLKIIEQLPSAKESPDKFLEVCTWVDQIAALNDSKTRKTTSETVRAVLDSLSEKKKSSP
As to B2, the “cleavage of the palindromic RAG1.10.2 target (yeast screen)” value is recorded as “M2-RM2-M3 was found to cleave also RAG1.10.2”.

B3: M2G19S-RM2-M3 RAG1 single chain meganuclease (protein)
chain: MNTKYNKEFLLYLAGFVDSDGSIIAQIKPRQSNKFKHQLSLTFAVTQKTQRRWFLDKLVDEIGVGYVYDSGSVSDYRLSEIKPLHNFLTQLQPFLKLKQKQANLVLKIIEQLPSAKESPDKFLEVCTWVDQIAALNDSKTRKTTSETVRAVLDSLSEKKKSSPAAGGSDKYNQALSKYNQALSKYNQALSGGGGSNKEFLLYLAGFVDGDGSIIAQINPNQSSKFKHRLRLTFYVTQKTQRRWFLDKLVDEIGVGYVRDSGSVSQYVLSEIKPLHNFLTQLQPFLKLKQKQANLVLKIIEQLPSAKESPDKFLEVCTWVDQIAALNDSKTRKTTSETVRAVLDSLSEKKKSSP
B3: the “cleavage of the palindromic RAG1.10.2 target (yeast screen)” value was “abolishes RAG1.10.2 cleavage”.

B4: X2-RM2-H33G19S single chain meganuclease (protein)
chain: MNTKYNKEFLLYLAGFVDGDGSIIAQIKPNQSHKFKHALQLTFKVTQKTQRRWFLDKLVDEIGVGYVQDSGSVSNYILSEIKPLHNFLTQLQPFLKLKQKQANLVLKIIEQLPSAKESPDKFLEVCTWVDQIAALNDSKTRKTTSETVRAVLDSLSEKKKSSPAAGGSDKYNQALSKYNQALSKYNQALSGGGGSNKEFLLYLAGFVDSDGSIIAQIKPNQSHKFKHQLSLAFQVTQKTQRRWFLDKLVDEIGVGYVRDRGSVSDYILSEIKPLHNFLTQLQPFLKLKQKQANLVLKIIWRLPSAKESPDKFLEVCTWVDQIAALNDSKTRKTTSETVRAVLDSLSEKKKSSP
For B4, the “cleavage of the palindromic C3 target (CHO extrachromosomal assay)” value was “greatly reduces the activity toward the C3 target”.

B5: X2-RM2-H33 single chain meganuclease (protein)
chain: MNTKYNKEFLLYLAGFVDGDGSIIAQIKPNQSHKFKHALQLTFKVTQKTQRRWFLDKLVDEIGVGYVQDSGSVSNYILSEIKPLHNFLTQLQPFLKLKQKQANLVLKIIEQLPSAKESPDKFLEVCTWVDQIAALNDSKTRKTTSETVRAVLDSLSEKKKSSPAAGGSDKYNQALSKYNQALSKYNQALSGGGGSNKEFLLYLAGFVDGDGSIIAQIKPNQSHKFKHQLSLAFQVTQKTQRRWFLDKLVDEIGVGYVRDRGSVSDYILSEIKPLHNFLTQLQPFLKLKQKQANLVLKIIWRLPSAKESPDKFLEVCTWVDQIAALNDSKTRKTTSETVRAVLDSLSEKKKSSP
B5: the “cleavage of the palindromic C3 target (yeast screen and CHO extrachromosomal assay)” value is on record as “the strong cleavage of the C3 target with single chain molecules”.

B6: X2-L1-H33 single chain meganuclease (protein)
chain: MNTKYNKEFLLYLAGFVDGDGSIIAQIKPNQSHKFKHALQLTFKVTQKTQRRWFLDKLVDEIGVGYVQDSGSVSNYILSEIKPLHNFLTQLQPFLKLKQKQANLVLKIIEQLPSAKESPDKFLEVCTWVDQIAALNDSKTRKTTSETVRAVLDSLSEKKKSSPAAGGGGSGGGGSGGGGSGGGGSNKEFLLYLAGFVDGDGSIIAQIKPNQSHKFKHQLSLAFQVTQKTQRRWFLDKLVDEIGVGYVRDRGSVSDYILSEIKPLHNFLTQLQPFLKLKQKQANLVLKIIWRLPSAKESPDKFLEVCTWVDQIAALNDSKTRKTTSETVRAVLDSLSEKKKSSP
For B6, the “cleavage of the palindromic C3 target (yeast screen and CHO extrachromosomal assay)” value is reported as “the strong cleavage of the C3 target with single chain molecules”.

B7: X2-L1-H33G19S single chain meganuclease (protein)
chain: MNTKYNKEFLLYLAGFVDGDGSIIAQIKPNQSHKFKHALQLTFKVTQKTQRRWFLDKLVDEIGVGYVQDSGSVSNYILSEIKPLHNFLTQLQPFLKLKQKQANLVLKIIEQLPSAKESPDKFLEVCTWVDQIAALNDSKTRKTTSETVRAVLDSLSEKKKSSPAAGGGGSGGGGSGGGGSGGGGSNKEFLLYLAGFVDSDGSIIAQIKPNQSHKFKHQLSLAFQVTQKTQRRWFLDKLVDEIGVGYVRDRGSVSDYILSEIKPLHNFLTQLQPFLKLKQKQANLVLKIIWRLPSAKESPDKFLEVCTWVDQIAALNDSKTRKTTSETVRAVLDSLSEKKKSSP
Regarding B7, the “cleavage of the palindromic C3 target (CHO extrachromosomal assay)” value is reported as “greatly reduces the activity toward the C3 target”.

B8: single-chain M3-RM2-M2G19S meganuclease (enzyme)
chain: MANTKYNKEFLLYLAGFVDGDGSIIAQINPNQSSKFKHRLRLTFYVTQKTQRRWFLDKLVDEIGVGYVRDSGSVSQYVLSEIKPLHNFLTQLQPFLKLKQKQANLVLKIIEQLPSAKESPDKFLEVCTWVDQIAALNDSKTRKTTSETVRAVLDSLSGKKKSSPAAGGSDKYNQALSKYNQALSKYNQALSGGGGSNKEFLLYLAGFVDSDGSIIAQIKPRQSNKFKHQLSLTFAVTQKTQRRWFLDKLVDEIGVGYVYDSGSVSDYRLSEIKPLHNFLTQLQPFLKLKQKQANLVLKIIEQLPSAKESPDKFLEVCTWVDQIAALNDSKTRKTTSETVRAVLDSLSEKKKSSP
notes: also called SC-v3v2G19S; not shown: His6 tag at the C-terminus
Consider B8, for which the binding result in data set [2] is “no binding”.

B9: X2 I-CreI mutant (C4 cutter) (protein)
chain: MNTKYNKEFLLYLAGFVDGDGSIIAQIKPNQSHKFKHALQLTFKVTQKTQRRWFLDKLVDEIGVGYVQDSGSVSNYILSEIKPLHNFLTQLQPFLKLKQKQANLVLKIIEQLPSAKESPDKFLEVCTWVDQIAALNDSKTRKTTSETVRAVLDSLSEKKKSSP
Regarding B9, the “cleavage of the palindromic C4 DNA target on co-expression of X2 and H33 in yeast” value is “but also the C3 and C4 targets”. In data set [3], the “cleavage of the XPC C1 DNA target on co-expression in yeast” value is recorded as “cleaves the C1 target”.

B10: H33 I-CreI mutant (C3 / HprCH3.3 cutter) (protein)
chain: MNTKYNKEFLLYLAGFVDGDGSIIAQIKPNQSHKFKHQLSLTFQVTQKTQRRWFLDKLVDEIGVGYVRDRGSVSDYILSEIKPLHNFLTQLQPFLKLKQKQANLVLKIIEQLPSAKESPDKFLEVCTWVDQIAALNDSKTRKTTSETVRAVLDSLSEKKKSSP
Turning to B10, the “cleavage of the palindromic HprCH3.3 and HprCH3.4 targets on co-expression of MA17 and H33 in yeast” value is “cleavage of the HprCH3.3 and HprCH3.4 targets”.

B11: MA17 I-CreI mutant (HprCH3.4 cutter) (protein)
chain: MNTKYNKEFLLYLAGFVDGDGSIIAQIKPNQTHKFKHQLSLTFRVTQKTQRRWFLDKLVDEIGVGYVYDSGTVSNYNLSEIKPLHNFLTQLQPFLKLKQKQANLVLKIIEQLPSAKESPDKFLEVCTWVDQIAALNDSKTRKTTSETVRAVLDSLSEKKKSSP
As for B11, the “cleavage of the palindromic HprCH3.3 and HprCH3.4 targets on co-expression of MA17 and H33 in yeast” value was “cleavage of the HprCH3.3 and HprCH3.4 targets”. Besides, in data set [3], the “cleavage of the HprCH3 DNA target on co-expression in yeast” value is recorded as “resulted in the cleavage of the HprCH3 DNA target”.
